Source: the supplement of paper PMC10126150
± gives the standard deviation of the averaged measurements.

Test system: ATP
Assay: switch fluorescence ratio, 500 uM ATP over buffer (Cy3 cluster intensity, sum of 5 cycles each) (fold (ratio)); higher = stronger signal-on switching upon ATP binding; sequences stand for … in TCGTCGGCAGCGTCAGATGTGTATAAGAGACAGTTTTTTTTTTTTTTTTTTTTTTTTT…TC
Details: aptamer strand: ATP DNA aptamer (quencher-CACCTGGGGGAGTATTGCGGAGGAAGG + anchor), 100 nM annealed; ATP concentration: 500 uM
Method in brief: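 Exposure to 500 uM ATP lasted 15 min at 22 °C before imaging, and a selection-buffer image was taken beforehand, for Cy3-labelled switching-strand clusters on a modified Illumina MiSeq flow-cell annealed to 100 nM quencher-labelled ATP aptamer. Five buffer/ATP cycles were run with NaOH stripping and re-annealing between them. The fluorescence ratio per cluster is summed target-cycle over summed buffer-cycle Cy3 intensity, averaged per switch-domain sequence. Clusters outside 100-1000 RFU were excluded.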

Sequence | switch fluorescence ratio
GTTTAGTATT | 0.999 ± 0.019
TTATTTAAGG | 1.01 ± 0.031
GAGGTAGTCA | 1.0112 ± 0.00047
CGAGGGATTT | 1.05 ± 0.013
TATGAAGCCT | 1.16 ± 0.02
GATGACGTCC | 1.04 ± 0.069
TGGTGTATGT | 0.995 ± 0.022
TTTGCGGGTT | 1 ± 0.057
CCAACAGGGA | 1.112 ± 0.0014
TAAAAAATTT | 1.02 ± 0.035
TGGGTTTGC | 0.98 ± 0.054
TGTTGGCAGG | 1.02 ± 0.012
TGGGGAAAGC | 0.983 ± 0.014
CAGGCTAGGC | 1.02 ± 0.056
CATCAGGCGG | 1.02 ± 0.015
TGTGTTTTTA | 1.006 ± 0.0016
CGAAGGATTT | 1.003 ± 0.0041
GAATATTTCT | 1.02 ± 0.021
TGACTTAGTG | 1.03 ± 0.016
GTTGGTTAGC | 1.02 ± 0.035
TTTTTCGGG | 0.996 ± 0.014
TTAGCGGTGG | 0.926 ± 0.057
ATTAAAGCGT | 1 ± 0.016
GATGAATGGG | 0.996 ± 0.014
TTGTGGTGAC | 0.9866 ± 0.0012

Sequence | switch fluorescence ratio
TATATGGCCC | 1.02 ± 0.02
GCGTTCAGGT | 1.01 ± 0.02
CGATACGGTG | 1.07 ± 0.035
CGAATTTGCT | 1.01 ± 0.0079
CGAAGAGGTG | 1.07 ± 0.021
ATAGCGGTCG | 1.01 ± 0.07
TCCAGGCGAA | 1.08 ± 0.038
AGTCATGAAA | 1.11 ± 0.12
TTAGACCGGA | 1.02 ± 0.056
ACGTTGGGGG | 1.01 ± 0.028
TAAGTGGGTA | 0.991 ± 0.011
ACATGGGATT | 1.01 ± 0.043
GGGGAATTTG | 1.01 ± 0.041
CACAACGGGA | 0.985 ± 0.029
CCCTATATAG | 1.01 ± 0.011
GGGGAAACGA | 0.9987 ± 0.0015
AGTTTTTTGT | 0.979 ± 0.042
TTGTGCGCGG | 1.04 ± 0.019
AGGAAGGGTT | 1.05 ± 0.12
TTTACGGTTG | 0.996 ± 0.016
GTTGGGAGGA | 0.989 ± 0.018
ATCGGCTGTG | 0.983 ± 0.022
GATTTTTGGA | 0.968 ± 0.03
CCTTGGACGG | 1.03 ± 0.02
TCTTGGCCAT | 1.24 ± 0.32

Sequence | switch fluorescence ratio
AGGAGTATTA | 0.983 ± 0.018
TTTATGCACT | 1.05 ± 0.051
AATTCGCGTT | 0.9868 ± 0.004
ACGTTTAGAA | 1.01 ± 0.029
GGCTGGTGTG | 1.02 ± 0.029
ATCTTATTTG | 1.01 ± 0.033
CTCATTGGCC | 0.983 ± 0.0025
TAACAGATTT | 0.958 ± 0.0034
ACGAAATCGG | 1.03 ± 0.018
TTAAGTATGT | 1.08 ± 0.089
GCATTGGTTC | 1.02 ± 0.042
TGGGTGAGCT | 1.01 ± 0.036
CAGCAGAGGT | 1.02 ± 0.013
CCAGTGTTAG | 1.03 ± 0.013
AGGTTAGTTT | 0.985 ± 0.018
GGAGGGCGGG | 1.02 ± 0.021
ATGGAACGGT | 1.003 ± 0.0053
TCATGTGAAA | 1.03 ± 0.021
TACGTTATGC | 1.27 ± 0.013
TAACCCTGAA | 0.984 ± 0.015
TTTACCGGGA | 1.13 ± 0.15
TCGTGTATCT | 0.946 ± 0.039
AAAAAGGAGG | 1 ± 0.015
ATTCCTTGTA | 0.989 ± 0.039
CCTCAGCAGA | 3.75 ± 0.53

Sequence | switch fluorescence ratio
AATTGATTTA | 1 ± 0.086
TAGGGATCGT | 0.98 ± 0.051
GCCGGGGGGG | 1.02 ± 0.02
TCGGTTAATA | 1.018 ± 0.0054
TTTTCGGTCA | 0.976 ± 0.026
TTAGCATGGG | 1.04 ± 0.037
AGGATTGAGT | 1.024 ± 0.0094
TGCAGGGTGG | 1.05 ± 0.051
ACGGGGGGGC | 1.09 ± 0.06
GATGTAGTGG | 1.029 ± 0.0055
CTGATTATCT | 0.989 ± 0.02
CTCATCGGTT | 1.007 ± 0.0011
GGCCGTTTGG | 0.981 ± 0.032
CAGTGGGCGT | 1.04 ± 0.026
AGTGGCATAG | 0.996 ± 0.022
ATGGGGGTAT | 0.987 ± 0.019
ATGATGGG | 1.01 ± 0.017
TTGGGTAATT | 0.998 ± 0.022
TAAACAATTA | 0.9734 ± 0.0095
ATACTCGCGT | 1.014 ± 0.01
GCTTGTTTTT | 0.997 ± 0.018
AAGGTAGAGC | 1.03 ± 0.034
TTGAGTCCGT | 1.05 ± 0.075
GGTCCCAAAA | 0.981 ± 0.032
TTTTCCGTTT | 1.02 ± 0.032
